This note sets out measurements from the supplement of paper PMC7125110.

First the molecules themselves.
B1: glmS ribozyme (parent)
chain: AUAAAAGCGCCAGAACUACAGAAAUGUAGUUGACGAGGAGGAGGUUUAUCGAAUUUUCGGCGGAUGCCUCCAAA

Conditions in all cases: with glucosamine-6-phosphate
Data set [1] covers variants of B1. The experiment in a line: self-cleavage kobs at 160 uM GlcN6P; higher = faster cleavage; RNA array. An outline of the steps:
(§1)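 Glucosamine-6-phosphate (40 μM to 10 mM) in HEPES/KCl/Mg(OAc)2 buffer was flowed over sequenced MiSeq chips, and tiles were imaged over ~14 h. Barcoded ribozyme variants there had been transcribed in situ by E. coli RNA polymerase and were tracked through a hybridised Cy3 probe at 37 °C. One- or two-exponential decay fits to per-tile medians, normalised to baseline and to non-cleaving reference variants, gave kobs. kcat and KM came from weighted Michaelis–Menten fits across concentrations.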

Data set [2] covers variants of B1. Briefly: self-cleavage kobs at 640 uM GlcN6P; higher = faster cleavage; RNA array. An outline of the steps:
as §1

Variants of B1 are the subject of data set [3]. Briefly: self-cleavage kobs at 2500 uM GlcN6P; higher = faster cleavage; RNA array. An outline of the steps:
as §1

In data set [4] the parent is B1. The experiment in a line: self-cleavage kobs at 10000 uM GlcN6P; higher = faster cleavage; RNA array. An outline of the steps: as §1

± gives the standard error. Fewer inactive variants are shown than the library holds.

In the case of AUAAAAACGCCAGAACUACAGAAAUGUAGUUGACGAGGAGGAGGUUUAACGAAUUUUCGGCGGAUGCCUCCAAA, the “self-cleavage kobs at 160 uM GlcN6P” value with glucosamine-6-phosphate [1] is under 1e-05 s⁻¹. Also, in the data set with glucosamine-6-phosphate [2], the “self-cleavage kobs at 640 uM GlcN6P” value was under 1e-05 s⁻¹. In the data set with glucosamine-6-phosphate [3], the “self-cleavage kobs at 2500 uM GlcN6P” value was under 1e-05 s⁻¹. In addition, the “self-cleavage kobs at 10000 uM GlcN6P” value in the data set with glucosamine-6-phosphate [4] is under 1e-05 s⁻¹.
Regarding AUAAAAGCGCCAGAACUACAGAAAUGUAGUUGACAAGGAGGCGGUUUAUCGAAUUUUCGGCGGAUGCCUCCAAA, in the data set with glucosamine-6-phosphate [1], the “self-cleavage kobs at 160 uM GlcN6P” value was under 1e-05 s⁻¹. In addition, the “self-cleavage kobs at 640 uM GlcN6P” value with glucosamine-6-phosphate [2] was under 1e-05 s⁻¹. In addition, the “self-cleavage kobs at 10000 uM GlcN6P” value in the data set with glucosamine-6-phosphate [4] was under 1e-05 s⁻¹.
As to AUAAAAGCGCCAGAACUACAGAAAUGUAGAUGACGAGGAGGAGGUUUAUCGAAUUUUCGGCGAAUGCCUCCAAA, the “self-cleavage kobs at 160 uM GlcN6P” value with glucosamine-6-phosphate [1] is under 1e-05 s⁻¹. In addition, in the data set with glucosamine-6-phosphate [2], the “self-cleavage kobs at 640 uM GlcN6P” value was under 1e-05 s⁻¹. Moreover, in the data set with glucosamine-6-phosphate [3], the “self-cleavage kobs at 2500 uM GlcN6P” value is under 1e-05 s⁻¹. Besides, the “self-cleavage kobs at 10000 uM GlcN6P” value with glucosamine-6-phosphate [4] was under 1e-05 s⁻¹.
Take AUAAAAGCGCCAGAACUACAGAAAUGUAGCUGACGAGGAGGAGGUUUAUUGAAUUUUCGGCGGAUGCCUGCAAA: the “self-cleavage kobs at 160 uM GlcN6P” value in the data set with glucosamine-6-phosphate [1] was determined as 5.6e-05 ± 1.7e-05 s⁻¹. Also, the “self-cleavage kobs at 640 uM GlcN6P” value in the data set with glucosamine-6-phosphate [2] came out at 0.000134 ± 3.3e-05 s⁻¹. In addition, the “self-cleavage kobs at 2500 uM GlcN6P” value with glucosamine-6-phosphate [3] was found to be 0.000173 ± 3.3e-05 s⁻¹.
AUAAAAGCGCUAGAACUACAGAAAUGUAGUUGACGAGGAGGAGGUAUAUCGAAGUUUCGGCGGAUGCCUCCAAA: the “self-cleavage kobs at 160 uM GlcN6P” value with glucosamine-6-phosphate [1] is under 1e-05 s⁻¹. Besides, the “self-cleavage kobs at 2500 uM GlcN6P” value with glucosamine-6-phosphate [3] stood at 4.93e-05 ± 1.7e-05 s⁻¹.
For AUAAAAGCGCUAGAACUACAGAAAUGUAGUUGACGAGGAGGAUGUUUGUCGAAUUUUCGGCGGAUGCCUCGAAA, the “self-cleavage kobs at 160 uM GlcN6P” value with glucosamine-6-phosphate [1] is under 1e-05 s⁻¹. Further, the “self-cleavage kobs at 640 uM GlcN6P” value in the data set with glucosamine-6-phosphate [2] is under 1e-05 s⁻¹. In the data set with glucosamine-6-phosphate [3], the “self-cleavage kobs at 2500 uM GlcN6P” value was under 1e-05 s⁻¹.
With AUAAAAACGCCAGAACUACAGAAAUGUAGUUGACUAGGAGGAGGUUUAUCGAAUUUUCGGCGGAUGCCUCCAAA, the “self-cleavage kobs at 160 uM GlcN6P” value in the data set with glucosamine-6-phosphate [1] was under 1e-05 s⁻¹. Besides, the “self-cleavage kobs at 640 uM GlcN6P” value with glucosamine-6-phosphate [2] is under 1e-05 s⁻¹. In addition, the “self-cleavage kobs at 10000 uM GlcN6P” value in the data set with glucosamine-6-phosphate [4] is under 1e-05 s⁻¹.
Take AUAAAAGCGCCAGAACUACAGAAAUGUAGUUGACGAGGAGGAGGUUUAUCGAAUUUUCGGCGGAUUCUUUCAAA: the “self-cleavage kobs at 160 uM GlcN6P” value with glucosamine-6-phosphate [1] came to 7.05e-05 ± 2.3e-05 s⁻¹. Also, the “self-cleavage kobs at 2500 uM GlcN6P” value in the data set with glucosamine-6-phosphate [3] is 0.000104 ± 2.7e-05 s⁻¹.
For the variant AUAAAAGCGCCAGAACUACAGAAAUGUAGUUGACGAGGAGGAUGUUUAACGUAUUUUCGGCGGAUGCCUCCAAA, in the data set with glucosamine-6-phosphate [1], the “self-cleavage kobs at 160 uM GlcN6P” value is under 1e-05 s⁻¹. Besides, in the data set with glucosamine-6-phosphate [2], the “self-cleavage kobs at 640 uM GlcN6P” value is under 1e-05 s⁻¹. Moreover, the “self-cleavage kobs at 2500 uM GlcN6P” value in the data set with glucosamine-6-phosphate [3] is under 1e-05 s⁻¹.
With AUAAAAGCGCCAGAACUACAGAAAUGUAGUUGAUGAGGAGAAGGUUUAUCGAAUUUUCGGCGGAUGCCUCCAAA, in the data set with glucosamine-6-phosphate [1], the “self-cleavage kobs at 160 uM GlcN6P” value was under 1e-05 s⁻¹. Besides, the “self-cleavage kobs at 640 uM GlcN6P” value in the data set with glucosamine-6-phosphate [2] is under 1e-05 s⁻¹. The “self-cleavage kobs at 2500 uM GlcN6P” value with glucosamine-6-phosphate [3] was under 1e-05 s⁻¹. Moreover, the “self-cleavage kobs at 10000 uM GlcN6P” value with glucosamine-6-phosphate [4] is under 1e-05 s⁻¹.
In the case of AUAAAAGAGCCAGAACUACAGAAAUGUAGUUGACGUGGAGGAGGUUUAUGGUAUUUUCGGCGGAUGCCUCCAAA, the “self-cleavage kobs at 160 uM GlcN6P” value with glucosamine-6-phosphate [1] was under 1e-05 s⁻¹. Moreover, the “self-cleavage kobs at 640 uM GlcN6P” value with glucosamine-6-phosphate [2] is under 1e-05 s⁻¹. Besides, the “self-cleavage kobs at 2500 uM GlcN6P” value in the data set with glucosamine-6-phosphate [3] was under 1e-05 s⁻¹.
Take AUAAAAGCGCCAGAACUACAGAAAUGUAGUUGUCGAGGAGGAGGUUUAUCGAAUUUUCGGCGGAUGCCGCCAAA: the “self-cleavage kobs at 160 uM GlcN6P” value with glucosamine-6-phosphate [1] amounted to 5e-05 ± 2e-05 s⁻¹. In addition, the “self-cleavage kobs at 640 uM GlcN6P” value in the data set with glucosamine-6-phosphate [2] is 0.000237 ± 6.3e-05 s⁻¹.
The like results for AUAAAAGGGCCAUAACUACAGAAAUGUAGUUGACGAGGAGGAAGUGUAUUGAAUUUUCGGCGGAUGCCUCCAAA were, in that order, under 1e-05 s⁻¹ and under 1e-05 s⁻¹.
